assay: soluble on expression in E. coli; label from the status in PepcDB or PDB records

Row | Sequence | soluble on expression in E. coli
1 | MGTTSSQSKTLYQKLYDAHIVHEAPNETPLLYIDRHLVHEVTSPQAFDGLRAMGRPVRQPGKTFATMDHNVSTQTKDINASGEMARIQMQELIKNCAEFGVSLYDLNHPFQGIVHVIGPEQGMTLPGMTIVCGDSHTATHGAFGSLAFGIGTSEVEHVLATQTLKQGRAKTMRIEVNGTVGAGITAKDIVLAIIGKTGSAGGTGHVVEFCGSAIEALSMEGRMTLCNMAIEMGAKAGLVAPDDTTFAYLKGRQFAPTGEQWEQGVAYWRTLKSDADAQFDTIVTLDAADIAPQVTWGTNPGQVIAVNQIIPAPESFSDPVERASAEKALAYMDLRPGIKLTEVAIDKVFIGSCTNSRIEDLRAAAAIAQGRKVAKGVQAIVVPGSGPVKAQAEAEGLDKIFIAAGFEWRLPGCSMCLAMNNDRLEPGERCASTSNRNFEGRQGRGGRTHLVSPAMAAAAAVSGHFADVRELSATTH | not soluble
2 | MPGIIQIDDMNQSQALIGNNDEHLKAIEESFDVVIHARGQEVAVKGTKIENVEKAESVLINLLKVIDLGNNITIKDVEAAIKMAHNNTIQHLLDLYDEEITKDAFGKTIRAKTMGQRIYVNAMKNNDLVFGIGPAGTGKTFLAVVYAAKQLRKGAVKRIVLTRPAVEAGESLGFLPGDLKEKVDPYLRPLYDGLYTVLGREQTERFIERGIIEIAPLAYMRGRTLEDAFVILDEAQNTTHAQMKMFLTRLGFGSKMVVTGDQTQIDLPKGVKSGLKEAVSRLHNVKGISILKLDQSDVVRHPLVSKIIEHYEGEN | not soluble
3 | MSLQSEKTEAVVTLGANLTKSERLQMLDAFGVKANEVKIIDVTNQDIREQLGLDTSKPIPASSQSISSSYVVVKDKGGINVTTNNLTEVTGSMLANALLTSGVNNADVKADAPFKVTGTAALAGILKGFEDASGEELSLPKKEAAREEISLTNNLSNAKTKDGQTLGKDEAAVVVNDIKTDVIKDKPKNDEEIGKIVNNVTNNYNILLTQGQQEQTIKFMSKINDLDYNYGAMKESLNQMNDKLQQILKDTGKQLEESGLLEKALNGIKNVLVDIKDFLVNMFSSASEKVKDGITYDENGNIVIKTGNNSDESKNEESIQDKPQTQSNDNNQNQENEQGQNQTKEGHHHHHH | not soluble
4 | MGSDKIHHHHHHMAFDEMINADSSPRQPYSTYHQWYASQDRNRLIAKSKEAEKIFRKTGITFAVYGHADSSEKLIPFDLIPRIISGREWRRLAQGIEQRVIALNAFLDDIYHKQEIIRAGRIPRELVEKNDTFLPQMIGFRPPGGVYTHIVGTDIVRTGEDQYYVLEDNARTPSGVSYMLENRETMMQMFPELFHQNRVRPVENYPNLLRQSLSSLAPAGCEGKPRVAVLTPGIYNSAFYEHAFLADMMGVELVEGSDLRVIDGRVKMRTTRGYEAIDVLYRRVDDDFLDPLTFRPDSALGIPGIMDVYRAGNITIANAPGTGISDDKAIYSYMPEIVEFYTGRKPLLENVPTWRCSEPESLKYVLEHLAELVVKEVHGSGGYGMLVGPTATKKECAAFAEKLKSRPGNYIAQPTLSLSTVPIMVNKGIAPRHVDLRPYVLVSDKVQIIPGGLTRVALKEGSLVVNSSQGGGTKDTWVLED | not soluble
5 | MGSDKIHHHHHHMNKTLVIGAAFVDVIVDVPKLPKTGDDIPGNLKSYVVGGSAFNVFGTLKHEKINTDLFVPVGEGNYANQIKEKMRELKIPIKLPVRGNDNGWDISFIEPGGERSFLTIQGIEQDWKTEWFKTININEYKYFYLSGYEMENENAGKVILKELQKRIPESLLLFDASPRISSISKTIIQKIMKKNVIINCNKEEANYFMPKGHSLEEKARRIYAKTESPVIVTLGSNGSYYYDGNDHIIPSEKKDKIINTIGAGDTHCGGILAGLNKDMSFKDSVILANRLSGLVVEKESGSL | not soluble
6 | MSSPERDEGTPVPDSRGHCDADTVSGTPDRRPLLGEEKAVTGEGRAGIVGSPAPRDVEGLVPQIRVAAARQGESPPSVRGPAAAVFVTPKYVEKAQETRGAESQARDVKTEPGTVAAAAEKSEVATPGSEEVMEVEQKPAGEEMEMLEASGGVREAPEEAGPWHLGIDLRRNPLEAIQLELDTVNAQADRAFQHLEQKFGRMRRHYLERRNYIIQNIPGFWMTAFRNHPQLSAMIRGRDAEMLRYVTSLEVKELRHPKTGCKFKFFFRRNPYFRNKLIVKEYEVRSSGRVVSLSTPIIWRRGHEPQSFIRRNQDLICSFFTWFSDHSLPESDRIAEIIKEDLWPNPLQYYLCREGIRRPRRRPIREPVEIPRPFGFQSG | not soluble
7 | MWDQHMHCMFSGDSDADPVLMINSAINKGLDGICFTDHLDYDYKEEPGLFDLDIAAYEKRIKRLAIVLKEKGCPINIHWGIEIGLQPHITDKNNEVAKKYPFDLVIGSSHVVNGIDPYYPAFYKGKTEHEAYTEYFESILDNLHSGADFDVYGHIDYVVRYGPDKNKYYSYERYADIIDAILKEIISQGKGIELNTAGFKYGLGHSNPTEDVLKRYHELGGEIITVGADAHKPEHVAYDFDKVSNILKDAGFMYYTVFENRVPAFIKL | not soluble
8 | MPADIMEKNSSSPVAASVNTTPDKPKTASEHRKSSKPIMEKRRRARINESLSQLKTLILDALKKDSSRHSKLEKADILEMTVKHLRNLQRAQMTAALSTDPSVLGKYRAGFSECMNEVTRFLSTCEGVNTEVRTRLLGHLANCMTQINAMTYPGQPHPALQAPPPPPPGPGGPQHAPFAPPPPLVPIPGGAAPPPGGAPCKLGSQAGEAAKVFGGFQVVPAPDGQFAFLIPNGAFAHSGPVIPVYTSNSGTSVGPNAVSPSSGPSLTADSMWRPWRN | soluble
9 | MAQQLLMPKATAVWLVDNTALSFDQIAQFCKLHPLEVKAIADGESAQGIKGLDPIATGQLSRDEIARAEGNPNHKLKLSEPKVRVPDSKRKGPRYTPVSKRQDRPNAILWLVRNHPELKDAQISRLVGTTKATIEQIRERTHWNSANLTPMDPVTLGLCSQIDLDLEVERASKGRPLPSAAETGATLESAQETEKLDYGQDREEEKEIDADAVFAKLKSLKSDRKDDEEDDY | not soluble
10 | MGSDKIHHHHHHMTQRTFTPPWWARNPHVQTILPVLTKVNKPALTRQRLELEDGDFIDLDWLAKPTQTAPTQIEPIVVLVHGLEGSADSHYARRLLTLLDDHKVAALVHHHRSCSGVTNRLARSYHSGDTQDLHTTLSQLRRDYPDSPLLAVGYSLGGNVLTKYMGEHGSDSLVDRAVVISAPLQLGACAKRLRHGFSKVYQSYLIKQLQQKVRDKLALPDLSAQMPVTQAEVESLTTFHLFDDRVTAPLHGFDGVEDYYRRASGLPYLSQVAKPTLVIHAKDDPFMTDEVIPTQEALSPQVTYELHPQGGHVGFIDGGHPFKPRYYLEQRIVHFLLEA | not soluble
11 | MVSAPPTLQDQAFRSLVRNEVLTVSDAECLIREFFPPLFKEASTQKKPKTIMILVEHWPYPCLHVGLLIDKPNFQIFQAILDGVDTWLKRKYRPRMGRLKKVDFRDAQHHASLDMQDEREGRDYLVGTLPKKQIVEDHSRTRKERLKLFHDLSFMSSLHEDKHQTLLLEWAKERTSFLHLCCEKLEIGAVEVSKVRNVLKFLQPELIKELKLNTVGNLSKLAKFVPFIRKMRNLQKLMLVRTFGTRTFTQEEKQNISKIISLFCKLSCLRHLTIDDVYFLTDQMKELLRCLEAPLVSLKITLCQLSQSDLESFAQRWNYSQLKHLCLRGVTLTNLDVTPLRDFLKRVAANLQTLDLEDCRMDDSHFRTLLPALIKCTQLTSINLYDNDISEDVLENFLHRTTNLSQLTTEMYPAPSEVYNESNYVIVEIFIQICSELMNKLMEVRQANSVCFGSSSCYDCDNRYLYEDDGDVTLCLCQE | not soluble
12 | MNRIKSTLTALLLAGSFQASAADQTILNSSYDIARELFVAYNPVFAEHWQQKTGKTVEIKQSHAGSSAQARSILQGLAADVVTFNQVTDVQILHDKGKLIPANWQTLLPNASSPYYSTTAFLVRKGNPKNIQDWSDLVRDDVKSVFPNPKTSGNARYTYLAALGFAQKQFGQDNQVQQDEFLKKFLANVAVFDTGGRGATTSFVERGIGDVLITFESEVNNIRQQYGADDYQVVVPKTSILAEFPVAVVEKVAKRNGTYDVATEYVSYLYSEPAQRLLAEFNYRVHDAKVQAEFAERFPAVELLTVEGIAGGWEQAMQTQFANGAKLDQLLRR | not soluble
13 | MDNCNAWDKLLSQNESTINSTETATITAIIYSPSSKTLHQFINICFPEGSNSILDTTLINYATIGWTNDLKENYSVDVYTLIRNTDDALDLLKPFLQEHSSKVRWLILLDWTLNDQKLWLNELSYAFNKIKQLNDDNEFSVWCLNSGEILNLQRHTTVWQSVHIDFILQTLRSFCYFNDSSLFYICEDHTEEKREEAQRLKYQELLKHFCEDRDMKDHIEMVKRSEILIPKGCDSIGLIKTVDERFEPTEVKEQHFLARYMDFIPTIDKIREDRKTTSGIDLDKLYPLEVFKVNIQEELGKMFAKYRENSRI | soluble
14 | GPGSMMTEATTTPVETPIVCNIRDAAGLEGKLVTFKGWAYHIRKARKTLIFVELRDGSGYCQCVIFGKELCEPEKVKLLTRECSLEITGRLNAYAGKNHPPEIADILNLEMQVTEWKVIGESPIDLENIINKDSSIPQKMQNRHIVIRSEHTQQVLQLRSEIQWYFRKYYHDNHFTEIQPPTIVKTQCEGGSTLFKLQYFNEPAYLTQSSQLYLESVIASLGKSFCMLSSYRAEQSRTVRHLAEYLHLEAELPFISFEDLLNHLEDLVCTVIDNVMAVHGDKIRKMNPHLKLPTRPFKRMTYADAIKYCNDHGILNKDKPFEYGEDISEKPERQMTDEIGCPIFMIHFPSKMKAFYMSKVPGHPDLTESVDLLMPGVGEIVGGSMRIWNYDELMGAYKANGLNPDPYYWYTQQRKYGSCPHGGYGLGVERLVMWLLGEDHIRKVCLYPRYLERCEP | soluble
15 | MGSDKIHHHHHHMTQQVINSTSKNHLSPLENQKRYRVVLVHPSAGVNWSGGSEIFAIELARHLNSYFNVELLSGADCGSFSFPSGGISRTQAFNIVRHPLISKLLSRFASHPEIVIEHLSNFFPCAIQLLTKSADLIFPCNDYGGMAMAAFVRAIKGTPILFTEHVGLLGGGKSLTRNLRFHPDQLVVFSEAMAEFVRSVQPQQKVSIIPNGVDINRFTPVGNYINFGLPKPIVLCVASLKRHSHKRIGLAMEAVARLPQISLLLCGDGIDRDYFQAKGDELLGKERFKIQSFPYEQMPTVYRSADVFTLPSIDEPFGLAYVEAMASGLPVIATDDEMRRQIVGDAGRLCDVTNPDIYAAAIREILTQDWQVRARQKALGFSWENIALRYRELILKTIQGDQQNH | not soluble
16 | MGSDKIHHHHHHMMTSSEIKRIATYVEKGGVGKTTSAAHIAVAAHNRGHEVLLVDLAGTQNDLATHFGLSIVDEEATDDGVSIDAPISAVFGDDWAFLRDNIDDLLDRMTFPTDEGPDLIPADPGLGGADNNLANVPLEERYQKLDGFVEDLVADKYDLVIFDLPGKEDNIALNGLFAARNVVAPLKPGAFERDQLQKLDATLEEISADLDVDLGLALIIPTIISSQETLSESFVEYVTEEYPEIVGEPVTKTADIGNNQNAGRTLFAVPDDELYATGKRAREAYSANTEQLLSRLTDR | not soluble
17 | QKKVNVTGAVGMVSAEALEARPVANASQALQGVVPGLNLTVGNNGGALDGTLNMNIRGAGTIGDGSGSSPLVLIDGIEGDLNTVNPNDIESVSVLKDAASASIYGARASFGVILVTTKSGKSG | not soluble
18 | MDALVANYASDSDSDGDAPAATAGEAAPVPPEPSALLPPPPLDLLQPPNFVDCSTMAQGSRVRSFPHVEGNYALHVYIPVVIPSDAKKHLVLVMRRAASFVPDLYAIDADYALSELCKDEQKLEKVLLSREFHVSLGRTVAIQVHQIESLVAMLRQKFRSQQRYWMDFNKWEHFVNDDCTRSFLSLEVTSTGLPEISKQITMVDDVYRLHGLPEFYKNPRPHISLAWALGDVSCKLKQAIKEIEKSQSSLGTSQISNLRCKFSHVVCKIGKKVYDICKLAD | not soluble
19 | GAHMAGGRSWCLRRVGMSAGWLLLEDGCEVTVGRGFGVTYQLVSKICPLMISRNHCVLKQNPEGQWTIMDNKSLNGVWLNRARLEPLRVYSIHQGDYIQLGVPLENKENAEYEYEVTEEDWETIYPCLSPKNDQMIEK | soluble
